One molecule from article PMC5677370, “Structure-based nuclear import mechanism of histones H3 and H4 mediated by Kap123” (eLife, 2017) can be followed below.

The assay has as its target T1, full-length Kluyveromyces lactis (Kl) Kap123, wild type.
T1 chain: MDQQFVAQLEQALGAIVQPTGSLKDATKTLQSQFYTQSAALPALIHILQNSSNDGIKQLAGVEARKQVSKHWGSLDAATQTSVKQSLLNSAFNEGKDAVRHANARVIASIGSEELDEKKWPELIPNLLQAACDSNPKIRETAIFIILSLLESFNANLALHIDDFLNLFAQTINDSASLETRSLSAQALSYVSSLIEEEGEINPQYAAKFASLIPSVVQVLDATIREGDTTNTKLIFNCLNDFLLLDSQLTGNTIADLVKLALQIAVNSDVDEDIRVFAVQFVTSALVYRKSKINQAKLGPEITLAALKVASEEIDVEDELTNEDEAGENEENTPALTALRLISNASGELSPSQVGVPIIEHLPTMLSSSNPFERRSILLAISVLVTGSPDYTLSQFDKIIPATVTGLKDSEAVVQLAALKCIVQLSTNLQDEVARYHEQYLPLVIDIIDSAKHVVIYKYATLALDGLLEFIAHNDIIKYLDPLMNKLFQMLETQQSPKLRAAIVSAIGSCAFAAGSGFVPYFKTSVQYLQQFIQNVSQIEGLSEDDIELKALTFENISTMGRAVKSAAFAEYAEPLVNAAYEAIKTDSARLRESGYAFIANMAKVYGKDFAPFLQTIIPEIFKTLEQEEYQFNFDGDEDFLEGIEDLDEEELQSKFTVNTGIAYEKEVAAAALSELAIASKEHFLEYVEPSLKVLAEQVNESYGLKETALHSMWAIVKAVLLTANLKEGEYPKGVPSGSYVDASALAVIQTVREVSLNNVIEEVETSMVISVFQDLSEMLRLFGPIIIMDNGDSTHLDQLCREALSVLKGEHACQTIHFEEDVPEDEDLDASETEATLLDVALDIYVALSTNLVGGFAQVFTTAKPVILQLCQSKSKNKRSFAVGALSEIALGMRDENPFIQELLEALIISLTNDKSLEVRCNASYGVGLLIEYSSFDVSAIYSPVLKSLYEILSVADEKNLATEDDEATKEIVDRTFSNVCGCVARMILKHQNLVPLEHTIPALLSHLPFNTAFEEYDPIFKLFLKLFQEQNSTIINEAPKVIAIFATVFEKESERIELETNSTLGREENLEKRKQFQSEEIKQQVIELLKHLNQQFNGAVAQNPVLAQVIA
Briefly: SPR. The note with it: chain shown with the change; 7°C; wild-type Kap123 immobilized on a CM5 chip with 7116 RU; peptides injected at 0-10 µM; parent: est. 1.00; read off a plot.

B1: wild-type H4_(1–21)-NLS peptide, P02309 K5Q; K12Q (peptide)
chain: SGRGQGGKGLGQGGAKRHRKI
Take B1: the ratio to parent is 0.4.
